Data taken from patent US10202593B2, “Evolved sortases and uses thereof” (President and Fellows of Harvard College, priority 2013, dated 2019).

T1: fetuin A in human plasma (Homo sapiens, UniProt P02765)
T1 construct: site-specific modification of endogenous fetuin A in human plasma; tissue VWR 89347-902; host or cells: normal human plasma
T1 sequence (P02765 19-367): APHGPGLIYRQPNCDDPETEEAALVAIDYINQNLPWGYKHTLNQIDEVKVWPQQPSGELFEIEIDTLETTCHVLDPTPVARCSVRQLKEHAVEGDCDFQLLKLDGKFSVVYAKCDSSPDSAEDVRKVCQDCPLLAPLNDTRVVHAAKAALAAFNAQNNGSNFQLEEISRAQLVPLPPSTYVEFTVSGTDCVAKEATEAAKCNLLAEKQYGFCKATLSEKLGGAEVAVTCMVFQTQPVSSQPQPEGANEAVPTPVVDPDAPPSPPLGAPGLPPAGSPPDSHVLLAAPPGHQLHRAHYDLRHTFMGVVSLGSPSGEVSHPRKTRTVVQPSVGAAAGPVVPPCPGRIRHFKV


Target: T1, fetuin A in human plasma
Test: Plasma labeling of fetuin A with GGGK(biotin)
Type: biochemical
Details: for overall conjugation efficiency in human plasma (fetuin A, densitometry): 2 hours, room temperature
Experimental: FIG. 21A-D show applications of evolved sortases. (A) N- and C-terminal labeling of fibroblast growth factors FGF1 and FGF2. Tandem SUMO-TEV cleavage site-FGF1/2-LPESG-His6 (SEQ ID NO: 27) constructs were treated with eSrtA(4S-9) in the presence of GGG-PEG, then with eSrtA(2A-9) and TEV protease in the presence of Alexa Fluor750-LAETGG (SEQ ID NO: 35) and purified to afford the final conjugates in up to 20% yield (Table 3). The crude reactions were analyzed by SDS-PAGE and scanned for fluorescence at 700 nm. (B) Surface functionalization using eSrtA(2A-9) and eSrtA(4S-9). 96-well plates coated with GGG-PEG (5 kDa) were incubated with enzyme and Alexa Flur 488-LAETG (SEQ ID NO: 5; green) or Alexa Fluor 647-LPESG (SEQ ID NO: 3; red) for 2 hours, then washed three times. The total fluorescence of the resulting surfaces was measured at 488 nm or 647 nm, then normalized to the fluorescent intensities obtained from the samples containing eSrtA(2A-9)+488-LAETG (SEQ ID NO: 5) or eSrt(4S-9)+647-LPESG (SEQ ID NO: 3). (C, D) Treatment of human plasma with evolved SrtA variants for 2 hours at room temperature in the presence of GGGK(biotin) (SEQ ID NO: 22) with or without 10 mM CaCl2. […] Biotin capture and mass spectrometry identified this protein as fetuin A, confirmed by subsequent Western blot (D).
Normal human plasma was purchased from VWR (part number 89347-902) and stored at −20° C. For all reactions, an aliquot was thawed at 37° C. for 15 minutes, then vortexed to resuspend any coagulated material. To this sample was added 2 μL of 0.1 M GGGK(biotin) (SEQ ID NO: 22) for analytical reactions. Higher concentrations of GGGK(biotin) (SEQ ID NO: 22) were avoided for analytical purposes, as they caused increased background in downstream Western blotting. 10 μL of 1 M CaCl2 was added in cases of calcium supplementation. Reactions were initiated by the addition of 10 μL of 100 μM eSrtA, eSrtA(2A-9), or eSrtA(4S-9) and incubated at room temperature for 2 hours. Reactions were quenched by 10:1 dilution into SDS-PAGE loading buffer, followed by a 10 minute incubation at 95° C. These samples were then run on 4-12% Bis-Tris PAGE gels, blotted to PVDF membrane using the iBlot2 dry blotting system, blocked with Pierce Superblock buffer for 1 hour followed by incubation with 1:500 dilutions of Abcam α-Fetuin A antibody (MM0273-6M23) in Superblock buffer with 0.1% Tween-20 for 1 hour. The blot was then washed 3 times with PBS+0.1% Tween-20, then incubated again in 1:15,000 LiCor goat antimouse 680+1:15,000 Licor Streptavidin-800 in Superblock buffer with 0.1% Tween and 0.01% SDS added for 45 minutes. The blot was then washed 3 times with PBS+0.1% Tween and visualized on an Odyssey IR imager.
As in analytical labeling of Fetuin A, 1 mL of normal human plasma was combined with 10 μL 1M CaCl2, 10 μL of 0.1M GGGK(Biotin) (SEQ ID NO: 22), and 10 μL of 100 μM eSrtA(4S-9), then incubated at room temperature for 2 hours. 100 μL of pre-equilibrated Ni-NTA resin slurry and 12.5 μL 0.4M H2N-LPESGG (SEQ ID NO: 38) peptide was added to the mixture to act as a competitive inhibitor for thioester formation. The mixture was incubated at room temperature with shaking for 15 minutes, then filtered through a 0.2 μm spin filter before dilution to 10 mL final volume in PBS+1 mM EDTA+100 μM H2N-LPESGG (SEQ ID NO: 38) (PBS-EL). The solution was concentrated using a 10 kDa molecular weight cutoff spin concentrator for 20 minutes at 3500×g and a final volume of <1 mL. […]

[1] = presence of supplemental calcium (10 mM CaCl2)

Row | Molecule | fetuin A conjugation efficiency lower than that of eSrtA(4S-9) (10 mM added CaCl2) | overall conjugation efficiency in human plasma (fetuin A, densitometry) [1] | processing of fetuin A (without supplemental calcium) | overall conjugation efficiency in human plasma (fetuin A, densitometry) (absence of supplemental calcium)
1 | eSrtA (protein) QAKPQIPKDKSKVAGYIEIPDADIKEPVYPGPATREQLNRGVSFAEENESLDDQNISIAGHTFIDRPNYQFTNLKAAKKGSMVYFKVGNETRKYKMTSIRNVKPTAVEVLDEQKGKDKQLTLITCDDYNEETGVWETRKIFVATEVK | 90 fold | 0.6% | no processing | –
2 | eSrtA(4S-9): P94R, N98D, S102C, A104V, A118T, F122A, K134R, F144L, D160N, D165A, I182V, E189F, K190E, K196T (protein) QAKPQIPKDKSKVAGYIEIPDADIKEPVYPGPATREQLDRGVCFVEENESLDDQNISITGHTAIDRPNYQFTNLRAAKKGSMVYLKVGNETRKYKMTSIRNVKPTAVEVLDEQKGKDKQLTLVTCDDYNFETGVWETRKIFVATEVK | – | 57.6% | – | 1.8%
